Source: patent US20240034807A1
Numbering of substitutions follows the chain as printed.

B1: Clone #1 VH domain (protein)
VH: EVQLVESGGGVVQPGRSLRLSCAASGFTFSSYAMHWVRQAPGKALEWIGSISYSGSTYYNPSLKSRVTVSRDNAKNTLYLQMDSLRAEDTAMYYCAKYYCSGGTCYYFDYWGQGTLVTVSS
B2: Clone #12 VH domain (protein)
VH: EVQLVETGGDLAQPGESLRLSCVASGFTFSSSWMTWIRQAPGKGLEWVSSLSGRSEKTFYADSVKGRFTVSRDNAKNTLYLQMDSLRPEDTATYYCASGWALVWGQGTLVTVSS
B3: Clone #6 VH domain (protein)
VH: QVQLQQWGAGLLKPSETLSLTCAVYGGSFSGYYWSWIRQPPGKGLEWIGEINHSGSTNYNPSLKSRVTISVDTSKNQFSLKLSSVTAADTATYYCARSYRTVTYYKAYFQHWGQGTLVTVSS
B4: Clone #5 VH domain (protein)
VH: EVQLVESGGGVVQPGRSLRLSCAASGLTFSSYAMHWVRQAPGKGLEWIGTIRYDGNTYYNPSLKSLVTISRDDSTNTLYLQMNSLRAEDTATYYCARRRYYDSSGYRGAAFDIWGQGTLVTVSS
B5: Clone #11 VH domain (protein)
VH: EVQLVESGGGVVQPGRSLRLSCAASGFTFSSYAMHWVRQAPGKGLEWVSGITRSGGATFYAGSVKGRFTISRDDSTNTLYLQMNSLRAEDTAVYYCSRDPRRVDYWGQGTLVTVSS
B6: Clone #10 VH domain (protein)
VH: EVQLVESGGGVVQPGRSLRLSCAASGFTFSSYAMHWVRQAPGKGLEWIGSIRHDGNTYYNPSLKSRVTVSRDNAKNTLYLQMDSLRAEDTAMYYCAKYGCSSISCSFDYWGQGTLVTVSS
B7: Clone #8 VH domain (protein)
VH: B6 VH with T68S
B8: Clone #7 VH domain (protein)
VH: B6 VH with S50T, H53Y, R66L, V69I, N73D, A74S, K75T, D83N, M92L, I103T
B9: Clone #3 VH domain (protein)
VH: KVQLQQWGAGLLKPSETLSLTCAVYGGSFSGYYWSWIRQPPGKGLEWIGEINHSGSTNYNPSLKSRVTISVDTSKNQFSLKLSSVTAADTALYYCARTYRPHSYYYYGMDVWGQGTTVTVSS
B10: Clone #9 VH domain (protein)
VH: EVQLVESGGGVVQPGRSLRLSCAASGFTFSSYAMHWVRQAPGKGLEWVSGISYNGDHTYYADSVKGRSTVSRDNAKNTLYLQMDSLRPEDTAMYYCTRNYFFDYWGQGTLVTVSS
B11: Clone #4 VH domain (protein)
VH: EVQLVESGGGVVQPGRSLRLSCAASGFTFSSYAMHWVRQAPGKGLEWVSSISGNSLYKYYADSVKGRFTISRDDSTNTLYLQMNSLRAEDTATYYCTRHWAVGNWGQGTLVTVSS
B12: Clone #2 VH domain (protein)
VH: EVQLVESGGGVVQPGRSLRLSCAASGFTFSSYAMHWVRQAPGKGLEWIGYIYTSGSTNYNPSLKSRVTISRDDSTNTLYLQMNSLRAEDTATYYCARTPRGRDSSGYYQSPHAFDIWGQGTLVTVSS

Target: human mesothelin polypeptide (human) (UniProt Q13421)
Test: ELISA and SPR (Blitz) on a human mesothelin polypeptide

| Binder | EC50 |
| --- | --- |
| B1 | 1000 nM |
| B2 | 1.3 nM |
| B3 | 1000 nM |
| B4 | 298 nM |
| B5 | 98 nM |
| B6 | 107 nM |
| B7 | 6.5 nM |
| B8 | 16.4 nM |
| B9 | 38 nM |
| B10 | 944 nM |
| B11 | 1.7 nM |
| B12 | 1.6 nM |
